Literature values as cited in article PMC3350600.

Target: PP1 (Homo sapiens) (UniProt P62136)
Sequence of UniProt P62136 (P62136 2-330): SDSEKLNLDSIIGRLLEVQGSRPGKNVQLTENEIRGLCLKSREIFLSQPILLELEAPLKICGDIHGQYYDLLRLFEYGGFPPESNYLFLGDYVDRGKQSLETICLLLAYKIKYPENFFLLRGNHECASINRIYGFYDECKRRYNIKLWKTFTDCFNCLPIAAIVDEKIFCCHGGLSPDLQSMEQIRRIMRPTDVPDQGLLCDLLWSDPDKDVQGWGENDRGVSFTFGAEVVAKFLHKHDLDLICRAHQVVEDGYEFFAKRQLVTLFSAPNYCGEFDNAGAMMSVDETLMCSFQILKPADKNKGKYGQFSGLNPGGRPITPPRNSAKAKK

Kd: 8 nM
Substance: Spinophilin PP1-binding domain (from UniProt O35274)
